Results: PMC13529201

Molecular target: His-tagged Pasteurella lipoprotein E (PlpE) of P. multocida (Pasteurella multocida)
Experiment: BLI

B1: ABCF2 used as analyte in bio-layer interferometry (natural protein)
chain: MPSDLAKKKAAKKKEAAKARQRPRKGHEENGDVVTEPQVAEKNEANGRETTEVDLLTKELEDFEMKKAAARAVTGVLASHPNSTDVHIINLSLTFHGQELLSDTKLELNSGRRYGLIGLNGIGKSMLLSAIGKREVPIPEHIDIYHLTREMPPSDKTPLHCVMEVDTERAMLEKEAERLAHEDAECEKLMELYERLEELDADKAEMRASRILHGLGFTPAMQRKKLKDFSGGWRMRVALARALFIRPFMLLLDEPTNHLDLDACVWLEEELKTFKRILVLVSHSQDFLNGVCTNIIHMHNKKLKYYTGNYDQYVKTRLELEENQMKRFHWEQDQIAHMKNYIARFGHGSAKLARQAQSKEKTLQKMMASGLTERVVSDKTLSFYFPPCGKIPPPVIMVQNVSFKYTKDGPCIYNNLEFGIDLDTRVALVGPNGAGKSTLLKLLTGELLPTDGMIRKHSHVKIGRYHQHLQEQLDLDLSPLEYMMKCYPEIKEKEEMRKIIGRYGLTGKQQVSPIRNLSDGQKCRVCLAWLAWQNPHMLFLDEPTNHLDIETIDALADAINEFEGGMMLVSHDFRLIQQVAQEIWVCEKQTITKWPGDILAYKEHLKSKLVDEEPQLTKRTHNV
With B1 the Kd was 970 nM.
